Assay results published in patent US20150191542A1 (INNATE PHARMA S A, published 2015).

Columns and labels:
[1] = target: T1, MICA*004 expressed on C1R transfectant cells (human, UniProt Q29983 24-297, Glycosylated on cells; the letters do not carry this.); experiment: flow cytometry, MFI against antibody concentration on C1R-MICA*04 cells
T1 construct: also called C1R-MICA*004; C1R-MICA*04
T1 chain: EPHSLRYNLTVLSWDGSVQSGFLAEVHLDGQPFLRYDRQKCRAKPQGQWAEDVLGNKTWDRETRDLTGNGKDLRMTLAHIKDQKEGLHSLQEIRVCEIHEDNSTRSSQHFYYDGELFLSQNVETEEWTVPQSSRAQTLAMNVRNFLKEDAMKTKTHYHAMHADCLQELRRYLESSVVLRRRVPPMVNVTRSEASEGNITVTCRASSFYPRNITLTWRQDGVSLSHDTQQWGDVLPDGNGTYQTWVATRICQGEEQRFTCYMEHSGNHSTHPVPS
Experimental: (§1) The binding of antibodies obtained from the first and second immunization series (including 9C10, 20C6 and 16A8) were tested for binding to MICA-expressing CR1 transfectant cells C1R-MICA*001, C1R-MICA*004, C1R-MICA*007 and C1R-MICA*008 (Pr. A. Steinle, Eberhard-Karls University Tuebingen, Germany) described in Salih et al. (2003) Blood 102(4): […]. Binding was analyzed by flow cytometry.
(§2) Cells were harvested and stained in PBS 1×/BSA 0,2%/EDTA 2 mM buffer during 30 minutes at 4° C. using a dose-range of the anti-MICA mAbs. After two washes in staining buffer, cells were stained for 30 min at 4° C. with goat anti-mouse (H+L)-PE polyclonal antibodies (1/200). After two washes, stainings were acquired on a BD FACS Canto II and analyzed using the FlowJo software.

[2] = target: T2, MICA*008 expressed on C1R transfectant cells (human, UniProt Q29983 24-297, Glycosylated on cells; the letters do not carry this.); experiment: flow cytometry, MFI against antibody concentration on C1R-MICA*08 cells
T2 construct: also called C1R-MICA*008; C1R-MICA*08
T2 chain: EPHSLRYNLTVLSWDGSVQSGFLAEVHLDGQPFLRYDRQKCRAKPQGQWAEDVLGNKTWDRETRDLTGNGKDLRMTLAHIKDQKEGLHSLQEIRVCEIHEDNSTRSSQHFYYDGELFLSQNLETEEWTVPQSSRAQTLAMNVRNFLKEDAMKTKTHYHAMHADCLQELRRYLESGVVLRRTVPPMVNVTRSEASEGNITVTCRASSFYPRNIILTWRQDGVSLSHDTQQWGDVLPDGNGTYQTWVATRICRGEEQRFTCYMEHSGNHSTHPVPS
Experimental: as §1, §2

[3] = target: T3, recombinant human MICA extracellular domain recombinant-Fc protein (MICA*019 allele) (human, UniProt Q29983 24-297); experiment: SPR Biacore T100, biotinylated antibody captured on CAP chip, MICA*019-Fc injected; bivalent mean KD at pH 7.4; on MICA*019-Fc; bivalent, pH 7.4
T3 construct: Bought from R&D Systems; also called MICA*019-Fc; MICA-Fc; not shown: Fc part of the bought fusion protein (R&D Systems)
T3 chain: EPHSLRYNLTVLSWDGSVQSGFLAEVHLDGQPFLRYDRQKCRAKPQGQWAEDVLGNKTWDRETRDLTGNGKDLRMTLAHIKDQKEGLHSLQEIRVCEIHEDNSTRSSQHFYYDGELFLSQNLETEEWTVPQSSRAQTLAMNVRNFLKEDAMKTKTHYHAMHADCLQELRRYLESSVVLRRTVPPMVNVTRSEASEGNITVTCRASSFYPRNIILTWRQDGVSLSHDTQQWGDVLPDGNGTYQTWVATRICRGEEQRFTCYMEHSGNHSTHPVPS
Experimental: (§3) The binding of 9C10, 20C6 and 16A8 to either recombinant human MICA extracellular domain recombinant protein monomers or dimers (MICA*019 allele-Fc protein or MICA*001-His protein) as well as other NKG2D ligands MICB and ULBP1-2 was analyzed by Surface Plasmon Resonance (SPR) using a Biacore T100 apparatus to obtain monovalent and bivalent affinity, respectively. Biotinylated anti-MICA antibodies were injected at a constant rate of 10 μl/min over the Sensor Chip CAP flow-cells comprising Biotin CAPture Reagent. MICA-Fc or MICA-His protein, MICB-Fc, ULBP1-Fc or ULBP2-Fc protein is then injected successively (range of concentrations between 0.01-100 nM), with regeneration between injections, and in increasing order over two flowcells simultaneously. Curves are fitted using Biacore T100 Evaluation software.
Antibody 16A8 bound MICA and MICB but not ULBP1 or ULBP2. Results are shown in FIGS. 1A, 1B, 1C and 1D for MICA, MICB, ULBP1 and ULPB2 respectively.

[4] = target: T3, recombinant human MICA extracellular …; experiment: SPR Biacore T100, biotinylated antibody captured on CAP chip, MICA protein injected
Experimental: as §3
(a) General Biacore T100 methods. SPR measurements were performed on a Biacore T100 apparatus (Biacore GE Healthcare) at 25° C. In all Biacore experiments HBS-EP+ buffer (Biacore GE Healthcare) or 10 mM sodium acetate pH 7.4, 150 mM NaCl, 0.05% P20 served as running buffer and sensorgrams were analyzed with Biaevaluation 4.1 and Biacore T100 Evaluation software. Recombinant human and mouse TLR3 were purchased from R&D Systems.

[5] = target: T4, MICA*001 expressed on transfected cells (human); experiment: flow cytometry, MFI against antibody concentration on C1R-MICA*01 cells
T4 construct: the cells carry the complete allele; also called C1R-MICA*001; C1R-MICA*01
T4 chain: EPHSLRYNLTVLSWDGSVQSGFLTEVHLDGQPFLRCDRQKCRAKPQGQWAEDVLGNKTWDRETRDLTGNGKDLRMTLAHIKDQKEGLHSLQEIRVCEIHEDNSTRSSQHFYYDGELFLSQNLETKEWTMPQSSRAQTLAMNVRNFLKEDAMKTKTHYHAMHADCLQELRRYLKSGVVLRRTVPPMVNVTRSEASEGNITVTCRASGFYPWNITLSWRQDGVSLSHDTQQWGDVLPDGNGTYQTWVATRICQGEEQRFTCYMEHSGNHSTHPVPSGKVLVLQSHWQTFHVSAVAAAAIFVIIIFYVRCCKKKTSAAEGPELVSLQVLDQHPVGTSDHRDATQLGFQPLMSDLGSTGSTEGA
Experimental: as §1, §2

B1: antibody 9C10 (antibody, V domains shown)
VH: QVQLQQPGAELVRPGTSVNLSCKASGYSFTRYWMNWVKQRPGQGLEWIGMIHPSDSETRLNQKFKDKATLTVDKSSSTAYMQLSSPTSEDSAVYYCGYGNFFYVMDYWGQGTSVTVSS
VL: DILLTQSPAILSVSPGERVSFSCRASQSIGTSIHWYQQRTNGSPRLLIKFASESISGIPSRFSGSGSGTDFTLNINSVESEDIADYYCQQSNFWPFTFGSGTKLEVK
modifications: Biotinylated when captured in the SPR assays (9C10-Biot); the sites are not given.
notes: Murine hybridoma antibody of IgG2b isotype as tested; also called 9C10-Biot
For B1, the “EC50 (read off the curve)” value [1] was ~0.2 µg/mL, the “EC50 (read off the curve)” value [2] was ~0.2 µg/mL and the Kd [3] was 0.62 pM.

B2: antibody 16A8 (antibody, V domains shown)
VH: EVQLVESGGGLVKPGGSLKLSCAASGFTFSRYAMSWVRQTPEKRLEWVATIFSGGSYTYYPDSVKGRFTISRDNANNTLYLQMSSLKAEDTAMYFCARPNWERTFDYWGQGTTLTVSS
VL: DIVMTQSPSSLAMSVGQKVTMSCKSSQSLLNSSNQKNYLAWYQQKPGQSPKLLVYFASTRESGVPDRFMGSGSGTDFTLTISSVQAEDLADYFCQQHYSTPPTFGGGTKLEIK
notes: Murine hybridoma antibody of IgG2a isotype as tested; also called 16A8-Biot
In the case of B2, the binding result [4] is reported as “binds” and the “EC50 (read off the curve)” value [5] is reported as ~0.3 µg/mL.
